Holding throughout (experiment): holdup assay
Common to all, as to design: key: below the threshold = too weak to quantify, mostly under pKd 3.1 to 4

Experiment [1] concerns the target T1, PTPN13_1, Q12923.
T1 sequence (Q12923 1088-1188, limits assumed, looked up): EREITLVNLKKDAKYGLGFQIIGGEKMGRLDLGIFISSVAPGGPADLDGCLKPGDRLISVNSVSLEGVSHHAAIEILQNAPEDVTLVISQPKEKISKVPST

The target in experiment [2] is T2, APBA1_1, Q02410.
T2 sequence (Q02410 651-752, limits assumed, looked up): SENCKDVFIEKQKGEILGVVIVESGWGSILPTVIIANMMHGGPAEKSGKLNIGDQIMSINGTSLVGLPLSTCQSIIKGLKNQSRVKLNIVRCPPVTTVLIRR

In experiment [3] the target is T3, DFNB31_2, Q9P202.
T3 sequence (Q9P202 274-371, limits assumed, looked up): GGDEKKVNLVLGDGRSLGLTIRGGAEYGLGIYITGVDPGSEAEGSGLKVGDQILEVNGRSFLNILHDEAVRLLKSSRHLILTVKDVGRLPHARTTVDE

The target of experiment [4] is GORASP2, Q9H8Y8.
Experiment [5] concerns the target GRIP2_5, Q9C0E4.
Experiment [6] addresses GRIP2_3, Q9C0E4.
The target of experiment [7] is HTRA2, O43464.
Chain of HTRA2, O43464 (O43464 355-458): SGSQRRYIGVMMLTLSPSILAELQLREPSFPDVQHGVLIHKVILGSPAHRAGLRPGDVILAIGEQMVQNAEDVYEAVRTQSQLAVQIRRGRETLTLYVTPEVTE
The target of experiment [8] is T4, MPP6, Q9NZW5.
T4 sequence (Q9NZW5 125-219, limits assumed, looked up): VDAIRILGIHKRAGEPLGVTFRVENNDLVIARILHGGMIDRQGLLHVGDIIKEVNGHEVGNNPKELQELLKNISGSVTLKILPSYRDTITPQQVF

In experiment [9] the target is DLG2_3, Q15700.
In experiment [10] the target is T5, GRIP1_2, Q9Y3R0.
T5 sequence (Q9Y3R0 145-248, limits assumed, looked up): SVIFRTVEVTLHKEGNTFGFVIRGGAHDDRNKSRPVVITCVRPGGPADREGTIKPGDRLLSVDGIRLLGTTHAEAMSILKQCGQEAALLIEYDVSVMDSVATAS

In experiment [11] the target is T6, MPDZ_10, O75970.
T6 sequence (O75970 1624-1722, limits assumed, looked up): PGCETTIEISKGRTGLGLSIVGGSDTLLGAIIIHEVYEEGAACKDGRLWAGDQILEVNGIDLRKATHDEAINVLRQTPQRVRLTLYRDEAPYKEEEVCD

Experiment [12] addresses T7, TX1BP3, O14907.
T7 sequence (O14907 10-122, limits assumed, looked up): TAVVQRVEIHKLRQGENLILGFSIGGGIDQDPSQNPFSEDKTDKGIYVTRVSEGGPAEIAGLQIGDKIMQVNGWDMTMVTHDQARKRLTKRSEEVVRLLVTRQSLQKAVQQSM

Experiment [13] addresses AHNAK1, Q09666.
The target in experiment [14] is T8, GRIP1_5, Q9Y3R0.
T8 sequence (Q9Y3R0 568-668, limits assumed, looked up): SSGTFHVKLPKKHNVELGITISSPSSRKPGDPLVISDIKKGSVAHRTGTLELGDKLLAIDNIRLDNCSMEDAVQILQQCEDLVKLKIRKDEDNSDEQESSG

For experiment [15], the target named is T9, SNTA1, Q13424.
T9 sequence (Q13424 82-180, limits assumed, looked up): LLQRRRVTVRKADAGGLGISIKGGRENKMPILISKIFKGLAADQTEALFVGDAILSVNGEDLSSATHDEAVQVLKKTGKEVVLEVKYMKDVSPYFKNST

The target in experiment [16] is T10, SIPA1L2, Q9P2F8.
T10 sequence (Q9P2F8 945-1036, limits assumed, looked up): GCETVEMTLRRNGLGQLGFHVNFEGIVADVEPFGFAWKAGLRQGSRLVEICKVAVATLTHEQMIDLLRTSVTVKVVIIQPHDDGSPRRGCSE

For experiment [17], the target named is T11, TJP3_3, O95049.
T11 sequence (O95049 375-456, limits assumed, looked up): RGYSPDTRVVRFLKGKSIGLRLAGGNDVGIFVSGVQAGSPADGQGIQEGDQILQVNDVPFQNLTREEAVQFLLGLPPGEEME

The target in experiment [18] is T12, GRIP1_3, Q9Y3R0.
T12 sequence (Q9Y3R0 247-346, limits assumed, looked up): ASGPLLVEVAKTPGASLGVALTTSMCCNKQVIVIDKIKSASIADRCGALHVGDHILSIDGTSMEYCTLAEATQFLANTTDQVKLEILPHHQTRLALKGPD

Experiment [19] addresses T13, CARD11, Q9BXL7.
T13 sequence (Q9BXL7 662-765, limits assumed, looked up): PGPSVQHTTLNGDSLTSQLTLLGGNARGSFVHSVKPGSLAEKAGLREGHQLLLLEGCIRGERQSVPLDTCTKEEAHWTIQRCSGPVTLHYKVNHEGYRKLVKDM

Experiment [20] addresses Inadl_4, Q8NI35.
Experiment [21] addresses TJP1_2, Q07157.
The target of experiment [22] is T14, LNX2_2, Q8N448.
T14 sequence (Q8N448 334-432, limits assumed, looked up): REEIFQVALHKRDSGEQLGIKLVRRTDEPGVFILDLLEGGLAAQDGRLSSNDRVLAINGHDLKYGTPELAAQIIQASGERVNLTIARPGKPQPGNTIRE

Where [23] appears, read: plain residues with an end cap or a label only (N-terminal biotin on a linker: ahx).
Setting [24] is: plain residues with an end cap or a label only (N-terminal biotin on a linker: ttds).

Chain of TJP1_2, Q07157 (Q07157 181-274): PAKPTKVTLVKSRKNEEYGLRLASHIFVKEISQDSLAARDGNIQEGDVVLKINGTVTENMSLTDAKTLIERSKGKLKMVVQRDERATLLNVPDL
Chain of AHNAK1, Q09666 (Q09666 4-100): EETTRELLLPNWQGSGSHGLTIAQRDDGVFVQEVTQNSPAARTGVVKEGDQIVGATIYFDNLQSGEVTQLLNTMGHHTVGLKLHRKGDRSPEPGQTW
Chain of Inadl_4, Q8NI35 (Q8NI35 547-651): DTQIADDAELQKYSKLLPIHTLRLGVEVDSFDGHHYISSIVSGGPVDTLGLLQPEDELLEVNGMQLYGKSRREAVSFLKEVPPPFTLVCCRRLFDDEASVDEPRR
Chain of GRIP2_5, Q9C0E4 (Q9C0E4 544-642): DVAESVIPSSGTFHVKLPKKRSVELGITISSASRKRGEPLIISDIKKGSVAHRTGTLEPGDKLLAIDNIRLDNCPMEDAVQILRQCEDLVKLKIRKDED
Chain of GRIP2_3, Q9C0E4 (Q9C0E4 238-339): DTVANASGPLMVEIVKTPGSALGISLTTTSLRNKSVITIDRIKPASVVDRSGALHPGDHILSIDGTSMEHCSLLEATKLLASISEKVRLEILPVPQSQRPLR

B1: KCTD3, Q9Y597 (peptide)
chain: SDSSGQEYSL
A word on the pKd: it is −log10 of the Kd, conventionally taken in molar units. As for B1, the pKd entry in experiment [1] (setting [23]), in experiment [2] (setting [23]), in [3] (setting [23]), in experiment [4] (setting [23]), in experiment [5] (setting [23]) and in [6] (setting [23]) was “below the threshold” in each case. The negative logarithm of the Kd (pKd) entry in experiment [7] (setting [23]) is “below the threshold”; in experiment [8] (setting [23]) it was 3.83; in experiment [9] (setting [23]) it was “below the threshold”; in experiment [10] (setting [23]), “below the threshold”; in experiment [11] (setting [23]) it was 3.56; in experiment [12] (setting [23]), “below the threshold”. Also, the pKd result in experiment [13] (setting [23]), in [14] (setting [23]), in [15] (setting [23]), in [16] (setting [23]), in [17] (setting [23]) and in [18] (setting [23]) was “below the threshold” each time. The pKd result in experiment [19] (setting [23]), in experiment [20] (setting [23]), in experiment [21] (setting [23]) and in [22] (setting [23]) was “below the threshold” throughout.

B2: HPV59-E6, Q81964 (peptide)
chain: QRQARSETLV
Regarding B2, the pKd entry in [1] (setting [24]) was “below the threshold”; in experiment [2] (setting [24]) it was “below the threshold”; in experiment [3] (setting [24]), “below the threshold”; in [4] (setting [24]), 4.34; in [5] (setting [24]) it was “below the threshold”; in [6] (setting [24]), “below the threshold”. Moreover, the pKd result in [7] (setting [24]) was “below the threshold”; in [8] (setting [24]) it was “below the threshold”; in [9] (setting [24]), 4.84; in experiment [10] (setting [24]), “below the threshold”; in experiment [11] (setting [24]), “below the threshold”; in [12] (setting [24]), 4.05. Further, the pKd entry in experiment [13] (setting [24]) is “below the threshold”; in [14] (setting [24]), “below the threshold”; in [15] (setting [24]), 3.99; in experiment [16] (setting [24]), “below the threshold”; in experiment [17] (setting [24]) it was 3.7; in [18] (setting [24]) it was “below the threshold”. The pKd result is “below the threshold” in experiment [19] (setting [24]), “below the threshold” in experiment [20] (setting [24]), “below the threshold” in experiment [21] (setting [24]) and 5.04 in experiment [22] (setting [24]).

B3: HPV35-E6, P27228 (peptide)
chain: SKPTRRETEV
As for B3, the pKd entry in [1] (setting [24]) was “below the threshold”; in [2] (setting [24]), “below the threshold”; in [3] (setting [24]), “below the threshold”; in [4] (setting [24]), 3.82; in [5] (setting [24]), “below the threshold”; in [6] (setting [24]) it was “below the threshold”. The pKd entry in [7] (setting [24]) is “below the threshold”; in [8] (setting [24]) it was “below the threshold”; in experiment [9] (setting [24]), 5.31; in experiment [10] (setting [24]), “below the threshold”; in experiment [11] (setting [24]), “below the threshold”; in experiment [12] (setting [24]) it was 4.93. Further, the pKd result is “below the threshold” in experiment [13] (setting [24]); “below the threshold” in [14] (setting [24]); 4.85 in experiment [15] (setting [24]); “below the threshold” in experiment [16] (setting [24]); “below the threshold” in [17] (setting [24]); “below the threshold” in experiment [18] (setting [24]). Besides, the pKd result in experiment [19] (setting [24]), in [20] (setting [24]), in experiment [21] (setting [24]) and in experiment [22] (setting [24]) was “below the threshold” throughout.

B4: SHROOM4, Q9ULL8 (peptide)
chain: ESLLLGPSNF
As to B4, the pKd entry in experiment [1] (setting [23]), in experiment [2] (setting [23]), in [3] (setting [23]), in [4] (setting [23]), in [5] (setting [23]) and in [6] (setting [23]) was “below the threshold” in each case. Also, the negative logarithm of the Kd (pKd) result in [7] (setting [23]), in [8] (setting [23]), in experiment [9] (setting [23]), in experiment [10] (setting [23]), in [11] (setting [23]) and in experiment [12] (setting [23]) was “below the threshold” throughout. In addition, the pKd entry in experiment [13] (setting [23]), in experiment [14] (setting [23]), in experiment [15] (setting [23]), in [16] (setting [23]), in [17] (setting [23]) and in experiment [18] (setting [23]) was “below the threshold” each time. For the same molecule, the pKd entry in [19] (setting [23]), in experiment [20] (setting [23]), in experiment [21] (setting [23]) and in [22] (setting [23]) was “below the threshold” throughout.
